In article PMC10907630 one finds Kd data, which are given here for 1 sequence.

The subject of the data set is tau ΔMTBD-DBR (1N4R) del242-265, P10636-7. In words: EMSA. The settings on record: 10 mM NaCl; text gives 430; EMSA: 20 nM DNA or nucleosome, 20 mM HEPES pH 7.2, 10 mM NaCl (or 150), 0.5 mM TCEP, 0.1% Tween-20, 5% sucrose, room temperature 20 min; FA: 10 nM DNA, same …. On the technique in general: In EMSA bound probe runs differently from free probe, usually more slowly.

The term Kd denotes the concentration at which binding is half-saturated. A high value points to lower affinity.

Sequence of tau ΔMTBD-DBR (1N4R) del242-265, P10636-7 (P10636 other isoform, or with tags, fused parts or gaps mutant): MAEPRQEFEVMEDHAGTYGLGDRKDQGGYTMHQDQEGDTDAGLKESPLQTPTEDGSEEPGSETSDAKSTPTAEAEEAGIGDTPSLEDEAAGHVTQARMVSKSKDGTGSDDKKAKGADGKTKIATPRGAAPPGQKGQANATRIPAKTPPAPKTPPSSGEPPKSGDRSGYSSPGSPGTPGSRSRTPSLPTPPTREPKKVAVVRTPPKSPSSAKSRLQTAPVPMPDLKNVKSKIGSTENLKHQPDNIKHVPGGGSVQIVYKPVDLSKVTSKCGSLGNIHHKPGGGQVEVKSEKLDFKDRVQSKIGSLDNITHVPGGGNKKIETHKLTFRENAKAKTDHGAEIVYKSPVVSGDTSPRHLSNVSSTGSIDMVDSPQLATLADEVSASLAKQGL

“ACTACGCGGCCGCCCTGGAGAATCCCGGTGCCGAGGCCGCTCAATTGGTCGTAGACAGCTCTAGCACCGCTTAAACGCACGTACGCGCTGTCCCCCGCGTTTTAACCGCCAAGGGGATTACTCCCTAGTCTCCAGGCACGTGTCAGATATATACATCCTGTGCATGTAAGATCCAGT (double strand) [177 bp DNA (601)]” came in with a Kd of 427 nM.
